Assay [1] addresses SARS-CoV-2 S receptor-binding domain (RBD) (SARS-CoV-2 (isolate Wuhan-Hu-1), UniProt P0DTC2). The assay is described as follows: SPR.
For assay [2] the target is unchanged. The assay is described as follows: SPR. This is another data set of the same source.

B1: African Green monkey (Chlorocebus sabaeus) ACE2 ectodomain (ectoACE2), N-terminal 367 aa (domain or fragment)
chain: QSTIEEQAKTFLDKFNPEAEDLFYQSSLASWNYNTNITEENVQNMNNAGEKWSAFLKEQSTLAQMYPLQAIQNLTVKLQLQALQQNGSSVLSEDKSKRLNTILNTMSTIYSTGKVCNPNNPQECLLLDPGLNEIMEKSLDYNERLWAWEGWRSEVGKQLRPLYEEYVVLKNEMARANHYKDYGDYWRGDYEVNGVDGYDYNRDQLIEDVERTFEEIKPLYEHLHAYVRAKLMNAYPSYISPTGCLPAHLLGDMWGRFWTNLYSLTVPFGQKPNIDVTDAMVNQAWNAQRIFKEAEKFFVSVGLPNMTQGFWENSMLTDPGNVQKVVCHPTAWDLGKGDFRIIMCTKVTMD
For the molecule B1, in assay [1], the Kd is 0.0676 µM.

B2: human ACE2 ectodomain (ectoACE2), N-terminal 367 aa (domain or fragment)
chain: QSTIEEQAKTFLDKFNHEAEDLFYQSSLASWNYNTNITEENVQNMNNAGDKWSAFLKEQSTLAQMYPLQEIQNLTVKLQLQALQQNGSSVLSEDKSKRLNTILNTMSTIYSTGKVCNPDNPQECLLLEPGLNEIMANSLDYNERLWAWESWRSEVGKQLRPLYEEYVVLKNEMARANHYEDYGDYWRGDYEVNGVDGYDYSRGQLIEDVEHTFEEIKPLYEHLHAYVRAKLMNAYPSYISPIGCLPAHLLGDMWGRFWTNLYSLTVPFGQKPNIDVTDAMVDQAWDAQRIFKEAEKFFVSVGLPNMTQGFWENSMLTDPGNVQKAVCHPTAWDLGKGDFRILMCTKVTMD
Molecule B2 had a Kd in assay [2] of 0.0612 µM.

For the origin of these results see publication PMC9461283 (Biosafety and Health, 2022).
